Laboratory results from patent US20190041402A1 (GOVERNING COUNCIL OF THE UNIVERSITY OF TORONTO, published 2019).

Tests used:
[1] = target: T1, extracellular domain (ECD) of human αKlotho, amino acids E34-S981 with C-terminal 6-His tag (R&D Systems … (human, UniProt Q9UEF7 34-981)); assay: SPR, Fab captured by anti-H+L IgG, αKlotho injected at 50 to 6.25 ug/ml, Langmuir fit
T1 construct: range 34-981; also called αKlotho (aa34-981); target antigen
T1 sequence: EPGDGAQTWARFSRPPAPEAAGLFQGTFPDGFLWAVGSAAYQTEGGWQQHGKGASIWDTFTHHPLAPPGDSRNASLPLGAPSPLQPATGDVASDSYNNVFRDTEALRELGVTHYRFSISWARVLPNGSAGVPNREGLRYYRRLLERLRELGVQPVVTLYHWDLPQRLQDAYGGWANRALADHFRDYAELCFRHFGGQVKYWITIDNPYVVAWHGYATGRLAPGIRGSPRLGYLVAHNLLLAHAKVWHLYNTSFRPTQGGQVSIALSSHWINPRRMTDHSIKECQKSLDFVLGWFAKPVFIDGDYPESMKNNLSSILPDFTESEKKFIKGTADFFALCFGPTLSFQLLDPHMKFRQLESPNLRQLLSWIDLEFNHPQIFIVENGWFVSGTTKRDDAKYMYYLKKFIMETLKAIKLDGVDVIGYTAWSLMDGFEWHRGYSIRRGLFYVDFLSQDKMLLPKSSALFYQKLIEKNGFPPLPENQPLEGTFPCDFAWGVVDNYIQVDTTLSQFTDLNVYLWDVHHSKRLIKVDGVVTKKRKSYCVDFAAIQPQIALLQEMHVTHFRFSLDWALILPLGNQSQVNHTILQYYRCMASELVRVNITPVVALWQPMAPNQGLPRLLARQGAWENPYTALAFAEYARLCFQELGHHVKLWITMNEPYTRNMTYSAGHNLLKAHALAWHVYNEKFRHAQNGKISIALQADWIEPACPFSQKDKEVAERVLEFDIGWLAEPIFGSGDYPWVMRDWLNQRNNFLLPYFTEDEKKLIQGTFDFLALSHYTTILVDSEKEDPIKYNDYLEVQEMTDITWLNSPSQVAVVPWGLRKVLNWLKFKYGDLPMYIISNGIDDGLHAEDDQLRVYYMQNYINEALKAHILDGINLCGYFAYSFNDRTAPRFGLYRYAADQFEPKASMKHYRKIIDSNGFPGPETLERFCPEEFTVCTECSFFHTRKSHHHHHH
Experimental: Affinity estimates for each of the antibodies were determined by surface plasmon resonance (SPR). Fabs were immobilized using an anti-H+L antibody and serial dilutions of αKlotho were injected.

rat αKlotho (endogenous) = target: T2, rat αKlotho (endogenous) (rat, UniProt Q9Z2Y9 35-983); assay: immunoprecipitation-immunoblot, serum and urine; native soluble αKlotho in rat serum; immunoprecipitation-immunoblot
T2 sequence (looked up): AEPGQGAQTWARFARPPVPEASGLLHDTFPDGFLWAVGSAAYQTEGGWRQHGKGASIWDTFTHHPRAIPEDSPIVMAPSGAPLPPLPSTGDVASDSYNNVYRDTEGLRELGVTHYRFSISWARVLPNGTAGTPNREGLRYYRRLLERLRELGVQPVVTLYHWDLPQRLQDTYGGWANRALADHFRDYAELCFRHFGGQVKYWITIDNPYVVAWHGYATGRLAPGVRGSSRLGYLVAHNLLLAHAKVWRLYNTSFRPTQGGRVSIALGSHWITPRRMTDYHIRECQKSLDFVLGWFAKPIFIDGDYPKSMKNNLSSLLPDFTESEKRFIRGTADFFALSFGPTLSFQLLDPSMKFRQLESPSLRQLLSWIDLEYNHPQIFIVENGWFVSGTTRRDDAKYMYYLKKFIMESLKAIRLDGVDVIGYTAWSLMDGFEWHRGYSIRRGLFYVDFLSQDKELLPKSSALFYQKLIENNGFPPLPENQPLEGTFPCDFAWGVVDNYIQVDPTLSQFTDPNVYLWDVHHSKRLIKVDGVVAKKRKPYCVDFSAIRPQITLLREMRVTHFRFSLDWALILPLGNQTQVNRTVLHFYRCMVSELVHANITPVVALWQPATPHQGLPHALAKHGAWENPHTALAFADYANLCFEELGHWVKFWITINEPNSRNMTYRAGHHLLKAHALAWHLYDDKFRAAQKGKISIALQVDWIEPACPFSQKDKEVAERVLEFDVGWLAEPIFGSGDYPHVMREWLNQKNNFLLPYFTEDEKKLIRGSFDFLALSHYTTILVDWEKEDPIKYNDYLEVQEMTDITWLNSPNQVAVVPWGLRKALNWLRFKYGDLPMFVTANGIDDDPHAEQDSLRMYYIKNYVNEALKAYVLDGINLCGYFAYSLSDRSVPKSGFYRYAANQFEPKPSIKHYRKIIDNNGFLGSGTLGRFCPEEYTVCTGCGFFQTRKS
Experimental: The ELISA was performed as instructed by the manufacturer (Immuno-Biological Laboratory, Japan). For the IP-IB assay, typically 50 μl of serum or urine were diluted with KRH buffer [25 mM Hepes-NaOH (pH 7.4), 120 mM NaCl, 5 mM KCl, 1.2 mM MgSO4, 1.3 mM CaCl2, 1.3 mM KH2PO4] to a final volume of 0.5 ml incubated with 2 μg of sb106-Fab overnight at 4° C. in low binding, siliconized tubes. Sepharose beads (50 μL) conjugated with anti-FLAG antibody (50% v/v) prewashed 3× with KRH buffer were added, incubated (4° C.×2 h), and washed (KRH-500 μl per tube ×3; 22° C.). The immune complex was eluted with 2×SDS sample loading buffer (50 μl; 100° C.×3 min; 4° C.×3 min; spun), and fractionated by SDS-PAGE, transferred to nitrocellulose membranes and blotted with anti-KL1 antibody (KM2076, 1:4000 or 3.1 mg/mL, 1:10000 dilution) and diluent (Dako#S3022, Carpinteria, Calif., USA) overnight (4° C., rocker). The membrane was washed (×3, Tris-buffered saline with 0.1% Tween; TBS-T), exposed to anti-rat IgG2A (LSBio cat#LS-059051, 1:20000 in 5% milk/2% goat serum/TBS-T×1 h) and washed (×3 TBS-T). For chemiluminescence, the membrane was covered with SuperSignal West Femto Maximum Sensitivity substrate (Thermo Scientific, Rockford, Ill., USA) and exposed for 30-90 s. The 130-kD bands were scanned, and density was compared with internal control samples of know amount of Klotho using Adobe Photoshop CS4.

Kd [1]: 1.08 nM
koff [1]: 0.000389 s⁻¹
kon [1]: 360000 M⁻¹ s⁻¹
binding result (rat αKlotho (endogenous)): binds
B1: sb106 Fab (Fab, V domains shown)
VH: EVQLVESGGGLVQPGGSLRLSCAASGFNISYYSIHWVRQAPGKGLEWVAYISPSYGYTSYADSVKGRFTISADTSKNTAYLQMNSLRAEDTAVYYCARYYVYASHGWAGYGMDYWGQGTLVTVSS
VL: DIQMTQSPSSLSASVGDRVTITCRASQSVSSAVAWYQQKPGKAPKLLIYSASSLYSGVPSRFSGSRSGTDFTLTISSLQPEDFATYYCQQAGYSPITFGQGTKVEIKR
notes: also called Fsb106; clone 48
